Assay results reported in the nanobody polyreactivity screen of Harvey et al. (2022).

Assay: yeast display, Sf9 membrane polyspecificity reagent, FACS + sequencing; frameworks hold sequencing errors
In short: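 Nanobodies from a synthetic yeast display library (Saccharomyces cerevisiae BJ5465), induced 36–48 hours with galactose, were stained 1 hour at 4 °C with 10% biotinylated, detergent-solubilized Sf9 membrane reagent, enriched on streptavidin microbeads, then FACS-sorted. Anti-HA (expression) and streptavidin (reagent binding) fluorescence set low and high (top ~1%) gates. Polyreactivity labels come from the gate of origin. Genes were colony-PCR amplified, MiSeq 2 × 250 sequenced and filtered by CDR length.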

Row | Sequence | polyreactivity (PSR sort gate)
1 | QVQLVESGGGLVQAGGSLRLSCAASGSIFPANAMGWYRQAPGKERELVAAINRDGITNYADSVKGRFTISRDNAKNTVYLQMNSLKPEDTAVYYCAAEFAWQWWEYGYWGQGTQVTVSS | low polyreactivity
2 | QVQLVESGGGLVQEGGSLRLSCAASGFTFRQYAMGRSRQAPGKEMELVAAITKTGGSTYYADSVKGRFTISRDHAKNTVYLQMNSLKPEDPAVYYCNAARETRPRDYYWGQGTQVTVSS | low polyreactivity
3 | QVQLVESGGGLVQAGGSLRLSCAASGRTFSKYTMGWYRQEPGKESELVAVISRSGTRTYYADSVKGRFTISRDNANNTVYLQMNSMKPEDTAVYYCAAKDERRSFGMGYWGQGTQVTVTS | high polyreactivity
4 | QVQLVESGGGLVQAGGSLRLSCAASGSTFVGYAMGWYRQAPGKERELVADIDSIGGSTYYADSVKGRFTISRDNAKNTVYLQMNSLKPEDTAVYYCAARRFDTALVLYDYWGQGTQVTVSS | low polyreactivity
5 | QVQLEESGGGLVQAGGSLRLSCAASGFTFRYYAMGWYRQAPGKERELVASISSSGGSTNYADSVKGRFTISRDNAKNTVYLQMNSLKPEDTAVYYCAVPPYTWLYDYWGQGTQVTVSS | high polyreactivity
6 | QVQLVESGGGLVQAGGSLRLSWAASGSIFRSYAMGWYRQAPGKEREFVAAIPNSSGRTYYADSVKGRFTISRDNAKNTVYLQMNSLKPEDTAVYYCAARLPRTYQGGKLYRLQYSWGQGTQVTVSS | high polyreactivity
7 | QVQHVESGGGLVQAGGSLRLSCAASGFTIVYYGMGRYRQAPGKERELVAAITYSGGRTYYADSVKGRFTISRDNAKNTVYLQMNSLKPEDTAVYYCNAYTQQYRSYGYWGQGTQVTVSS | high polyreactivity
8 | QVQLVESGGGLVQAGGRLRLSCADSGRIFVKNTMGWYRQAPGKERELVAAISWSGGSTYYADSVKGRFTISRDNAKNTVYLQMNSLKPEDTAVYYCNARKRTKLSYPKFDYWGQGTQVTVSS | high polyreactivity
9 | QVQLVESGGGLVQAGGSLRLSCAASGITSRQYAMGWYRQAPGKERELVAAISFSGGRTYYADSVKGRFTISRDNAKNTVYLQMNSLKPEDTAVYYCATRNRYSPRDYWGQGTQVTVSS | high polyreactivity
10 | QVQLVESGGDLVQAGGSLRLSCAASGITFYVNTMGSYRPAPGKERELVAAIDWTDGGTYYADSVKGRFTISRDNAKNTVYLQMNSLKPEDTAVYYCAREYYWDIKGLYGYLAYDLDYWGQGSQVTVSS | low polyreactivity
11 | QVQLVESGGGLVQAGVSLRLRCASSGSTFAYNAMGWYRQAPGKESELVAAISTSGGYTYYADSVKGRFTISRDNAKNTVYLQMNSLKPEDTAVYYCYAVGRSKHGYSRSYYWGQGTQVTVSS | high polyreactivity
12 | QVQLVESGGGLVQAGGSLRLSCAASGSIFYVYTMGWYRQAPGKERELVAAISSSAGSTYYADSVKGRFTISRDNAKNTVYLQMNSLKQEDTAVYYCAAKVRYSLRKYYYWGQGTQVTVSS | high polyreactivity
13 | QVQLVESVGGLLQAGGSLRLSCDASGSIFADYAMGWYRQAPGKERELVAVITSSGGSTNYADSVKGRFTISRDNAKNTVYLQMNSLKPEDTAVYYCNRRPYPSYDYWGQGTQVTVSS | low polyreactivity
14 | QVQLVESGGGLVQAGGRLRLSCAASGRTFYGFAMGWYRQAPGKERELVASISRDGSTNYADSVKGRFTISRDNAKNTVYLQMNSLKPEDNAVYYCAADIWYYRYPIYYYSYDYWGQGTQVTVSS | low polyreactivity
15 | QVQLVESGGGLVQAGGSLRLSCAASGSTFYIYAMGAYRPAPGKERELVARISGSGGSTYYADSVKGRFTISRDNAKNTGYLQMNSLKPEDTAVYYCAADDIYKYYQYYAFPYYRYVYWGHGTQVTVSS | low polyreactivity
16 | QVQIVQSGGGLVQAGGSLRLSCAASGSTITYNAMGWYRQAPGKERELVAAITVSDGSTYYADSVKGRFTISRDNAKNTVYLQMNSLKPEDTAVYYCNAYAVYLRYLWYDFWGQGTQVTVSS | low polyreactivity
17 | QVQLVESGGGLVQAGGSLRLSCAASGRTFRKNAMGWYRQAPGKERELVAAISDTGGSTYYADSVKGRFTISRDNAKNTVYFQMNSLKTEDTAVYYCAATVRYRGFYYWGQGTQVTVSS | high polyreactivity
